One may read the Kd as a measure of binding affinity in units of concentration. Low values mean tighter binding, high ones weaker binding. One may read the stoichiometry N as a count of units in the complex or per binding partner.

Some results are limits rather than exact numbers.

Experimental findings from PMC11187106, “Master corepressor inactivation through multivalent SLiM-induced polymerization mediated by the oncogene suppressor RAI2” (Nature Communications, 2024) are described below.

Common to all, as to settings: both partners purified
Assay [1] deals with CtBP1(K46W) (human, UniProt Q13363 1-440, K46W). The experiment in a line: ITC; VP-ITC, 25 °C, 50 mM HEPES (pH 7.2), 150 mM NaCl; CtBP in the cell (10 µM for RAI2 M1 or M2, 20 µM for the WT RAI2 constructs), RAI2 in the syringe (100 µM); mean of three independent measurements ± SD.
The target in assay [2] is CtBP1(WT, FL) (human, UniProt Q13363 1-440). Described as above.
For assay [3], the target named is CtBP1(K46W) (human, UniProt Q13363 1-440, K46W). The experiment in a line: ITC; VP-ITC, 25 °C, 50 mM HEPES (pH 7.2), 150 mM NaCl; CtBP in the cell (10 µM for M1 or M2, 20 µM for WT RAI2 constructs), RAI2 constructs in the syringe (100 µM); mean of three measurements.
Assay [4] concerns the target T1, CtBP1(WT, FL) (human, UniProt Q13363 1-440). Described as above.
Assay [5] has as its target CtBP1(WT, FL) (human, UniProt Q13363 1-440). The assay is described as follows: ITC; VP-ITC, 25 °C, 50 mM HEPES (pH 7.2), 150 mM NaCl; CtBP1 in the cell (20 µM for WT RAI2, 10 µM for M1 or M2), RAI2(303-362) variants 100 µM in the syringe; mean of three independent measurements. For orientation: In ITC the heat of successive injections is recorded.
For assay [6] the target is unchanged. The assay is described as follows: ITC; VP-ITC, 25 °C, 50 mM HEPES (pH 7.2), 150 mM NaCl; CtBP in the cell (10 µM for RAI2 M1 or M2, 20 µM for the WT RAI2 constructs), RAI2 in the syringe (100 µM); mean of three independent measurements ± SD. The source holds these as a separate data set.
Assay [7] has as its target T1, CtBP1(WT, FL). The experiment in a line: SEC; analytical Superose 6 3.2/300 GL, 50 mM HEPES (pH 7.2), 150 mM NaCl; CtBP kept at 100 µM, RAI2 variants titrated at 1:0.1, 1:0.2, 1:0.5, 1:1 and 1:2. A general note: In gel filtration, larger molecules generally elute earlier.

B1: RAI2(WT, 303-362) (domain or fragment)
chain: SRHTVIKMGSENEALDLSMKSVPWLKAGEVSPPIFQEDAALDLSVAAHRKSEPPPETLYD
notes: this construct came from the same vector (pETGB1a, TEV site) and may carry the same residues; source: E. coli BL21 DE3 LOBSTR, purified (HisTrap, TEV cleavage, Superdex 75); not shown: His6, N-terminal, cleaved
Turning to B1, in the assay with CtBP1(K46W) [1], binding was put at a Kd of 4.5 µM and the “stoichiometry N” value was determined as 0.26. Further, in the assay with CtBP1(WT, FL) [2], binding was characterised by a dissociation constant (Kd) of 1.1 µM and the “stoichiometry N” value was determined as 0.42.

B2: RAI2(WT, 303–362) (domain or fragment, human, UniProt Q9Y5P3 303-362, looked up)
chain: SRHTVIKMGSENEALDLSMKSVPWLKAGEVSPPIFQEDAALDLSVAAHRKSEPPPETLYD
notes: 15N/13C-labelled for NMR; A residue of the TEV site (ENLYFQG) may remain at the N-terminus; PDB 8ARI holds the Δ11 variant of the same limits; source: E. coli BL21 DE3 LOBSTR, purified (HisTrap, TEV cleavage, Superdex 75); not shown: His6, N-terminal, cleaved
As to B2, the “stoichiometry N” value with CtBP1(K46W) [3] is < 0.3. Further, in the assay with CtBP1(WT, FL) [4], the “fold change in binding stoichiometry against M1 and M2” value was ~2 fold; the “fold increase in binding affinity against M1 and M2” value amounted to 5 fold; the “stoichiometry N” value came to 0.5.

B3: RAI2(WT, 303-362) (domain or fragment)
chain: SRHTVIKMGSENEALDLSMKSVPWLKAGEVSPPIFQEDAALDLSVAAHRKSEPPPETLYD
notes: Cloned in pETGB1a with a TEV site; also called Retinoic Acid-Induced 2; source: E. coli BL21 DE3 LOBSTR, purified (HisTrap, TEV cleavage, Superdex 75); not shown: His6, N-terminal, cleaved
Consider B3, for which, in the assay with CtBP1(WT, FL) [5], the Kd was 1.09 µM and the “stoichiometry N” value is 0.42.

B4: RAI2(M2, 303-362) (domain or fragment)
chain: SRHTVIKMGSENEALDLSMKSVPWLKAGEVSPPIFQEDAALDAAVAAHRKSEPPPETLYD
notes: source: E. coli BL21 DE3 LOBSTR, purified (HisTrap, TEV cleavage, Superdex 75); not shown: His6, N-terminal, cleaved
Regarding B4, in the assay with CtBP1(WT, FL) [2], the Kd came out at 3.9 µM and the “stoichiometry N” value was 0.84.

B5: RAI2(M1, 303-362) (domain or fragment)
chain: SRHTVIKMGSENEALDAAMKSVPWLKAGEVSPPIFQEDAALDLSVAAHRKSEPPPETLYD
notes: as for B4
Turning to B5, in the assay with CtBP1(WT, FL) [5], the Kd is 5.53 µM and the “stoichiometry N” value amounted to 0.785.

B6: RAI2(M2, 303–362) (domain or fragment)
chain: SRHTVIKMGSENEALDLSMKSVPWLKAGEVSPPIFQEDAALDAAVAAHRKSEPPPETLYD
notes: 15N-labelled for NMR; PDB 8ARI holds the Δ11 variant of the same limits; source: E. coli BL21 DE3 LOBSTR, purified (HisTrap, TEV cleavage, Superdex 75); not shown: His6, N-terminal, cleaved
In the case of B6, the Kd with CtBP1(WT, FL) [4] was ~5 µM.

B7: RAI2(M2, 303-362) (domain or fragment)
chain: SRHTVIKMGSENEALDLSMKSVPWLKAGEVSPPIFQEDAALDAAVAAHRKSEPPPETLYD
notes: as for B4
As for B7, in the assay with CtBP1(WT, FL) [5], binding was characterised by a dissociation constant (Kd) of 3.87 µM and the “stoichiometry N” value turned out to be 0.836.

B8: RAI2(M1, 303–362) (domain or fragment)
chain: SRHTVIKMGSENEALDAAMKSVPWLKAGEVSPPIFQEDAALDLSVAAHRKSEPPPETLYD
notes: as for B6
As to B8, the Kd in the assay with CtBP1(WT, FL) [4] is ~5 µM.

B9: RAI2(M1, 303-362) (domain or fragment)
chain: SRHTVIKMGSENEALDAAMKSVPWLKAGEVSPPIFQEDAALDLSVAAHRKSEPPPETLYD
notes: as for B4
As to B9, in the assay with CtBP1(WT, FL) [2], the Kd was found to be 5.5 µM and the “stoichiometry N” value came to 0.78.

B10: RAI2(WT, 303-530) (domain or fragment)
chain: SRHTVIKMGSENEALDLSMKSVPWLKAGEVSPPIFQEDAALDLSVAAHRKSEPPPETLYDSGASVDSSGHTVMEKLPSGMEISFAPATSHEAPAMMDSHISSSDAATEMLSQPNHPSGEVKAENNIEMVGESQAAKVIVSVEDAVPTIFCGKIKGLSGVSTKNFSFKREDSVLQGYDINSQGEESMGNAEPLRKPIKNRSIKLKKVNSQEIHMLPIKKQRLATFFPRK
As to B10, in the assay with CtBP1(WT, FL) [6], the Kd was 1.5 µM and the “stoichiometry N” value worked out at 0.34.

B11: RAI2(WT, 303–530) (domain or fragment)
chain: SRHTVIKMGSENEALDLSMKSVPWLKAGEVSPPIFQEDAALDLSVAAHRKSEPPPETLYDSGASVDSSGHTVMEKLPSGMEISFAPATSHEAPAMMDSHISSSDAATEMLSQPNHPSGEVKAENNIEMVGESQAAKVIVSVEDAVPTIFCGKIKGLSGVSTKNFSFKREDSVLQGYDINSQGEESMGNAEPLRKPIKNRSIKLKKVNSQEIHMLPIKKQRLATFFPRK
notes: as for B4
For the molecule B11, the binding result with CtBP1(WT, FL) [4] is given as “binds”.

B12: RAI2(WT, 303-465) (domain or fragment)
chain: SRHTVIKMGSENEALDLSMKSVPWLKAGEVSPPIFQEDAALDLSVAAHRKSEPPPETLYDSGASVDSSGHTVMEKLPSGMEISFAPATSHEAPAMMDSHISSSDAATEMLSQPNHPSGEVKAENNIEMVGESQAAKVIVSVEDAVPTIFCGKIKGLSGVSTKN
notes: this construct came from the same vector and may carry the same residues; source: E. coli BL21 DE3 LOBSTR, purified (HisTrap, TEV cleavage, Superdex 75); not shown: His6, N-terminal, cleaved
With B12, in the assay with CtBP1(WT, FL) [2], the Kd amounted to 1.5 µM and the “stoichiometry N” value came out at 0.32.

B13: RAI2(M2, 303–465) (domain or fragment)
chain: SRHTVIKMGSENEALDLSMKSVPWLKAGEVSPPIFQEDAALDAAVAAHRKSEPPPETLYDSGASVDSSGHTVMEKLPSGMEISFAPATSHEAPAMMDSHISSSDAATEMLSQPNHPSGEVKAENNIEMVGESQAAKVIVSVEDAVPTIFCGKIKGLSGVSTKN
notes: only residues 315-321 (EALDLSM) are seen in the crystal structure; source: E. coli BL21 DE3 LOBSTR, purified (HisTrap, TEV cleavage, Superdex 75); not shown: His6, N-terminal, cleaved
On to B13, for which the binding result with CtBP1(WT, FL) [7] is given as “binds”.

B14: RAI2(M1, 303–465) (domain or fragment)
chain: SRHTVIKMGSENEALDAAMKSVPWLKAGEVSPPIFQEDAALDLSVAAHRKSEPPPETLYDSGASVDSSGHTVMEKLPSGMEISFAPATSHEAPAMMDSHISSSDAATEMLSQPNHPSGEVKAENNIEMVGESQAAKVIVSVEDAVPTIFCGKIKGLSGVSTKN
notes: PDB 8ATI holds the M2 variant of the same limits; source: E. coli BL21 DE3 LOBSTR, purified (HisTrap, TEV cleavage, Superdex 75); not shown: His6, N-terminal, cleaved
With B14, the binding result with CtBP1(WT, FL) [7] is recorded as “binds”.

B15: RAI2(Δ11, 303-362) (domain or fragment, UniProt Q9Y5P3 303-362, looked up)
chain: SRHTVIKMGSENEALDLSMKSVPWLKAGALDLSVAAHRKSEPPPETLYD
notes: as for B4
Regarding B15, in the assay with CtBP1(K46W) [1], the affinity, expressed as Kd, was 7.2 µM and the “stoichiometry N” value amounted to 0.29. In the assay with CtBP1(WT, FL) [2], the Kd turned out to be 0.8 µM and the “stoichiometry N” value was 0.41.
